The values that follow come from PMC3057930 (Proteins, 2010).

Marks after values point to notes of the source that are not given here. Where only a bound is given, the exact number is not on record here.

Data set [1] concerns the target T1, CaM1-148 (Paramecium tetraurelia, UniProt P07463). Description: CaM titration of Fl-βCaNp, fluorescence anisotropy, CaM1-148. Particulars: CaM1-148, Ca2+-saturated (limiting value), 10 mM CaCl2, 100 nM Fl-βCaNp, stoichiometric titration, upper limit, pH 7.4, 22 °C. The format is binding. For orientation: In fluorescence polarisation assays a small probe gives low polarisation when free and higher when bound to something large.

For data set [2], the target named is T1, CaM1-148. The experiment in a line: Population distribution of calcium ligation species.
The subject of a further data set is CaM C-domain vs N-domain. Particulars: ref [15]; cited from earlier work.
Data set [3] has as its target CaN. Particulars: cited from earlier work.
For data set [4], the system named is CaN. Particulars: CaM binding to CaNA; ref [9],[10]; cited from earlier work.
The test system of another data set is 15N-(Ca^2+)4-CaM1-148. Description: 15N T2 relaxation by NMR. The format is physicochemical, Paramecium. Particulars: 500 μM 15N-CaM1-148, 10-20% molar excess of peptide; 5 mM CaCl2, 50 mM HEPES, pH 7.4; 22 °C; 800 MHz; excluding mobile termini.
Another data set concerns the target (Ca^2+)4-CaM1-148 (Paramecium tetraurelia, UniProt P07463). Particulars: Ca2+-CaM1-148 bound to melittin; 10 mM CaCl2; ref Sorensen et al [42]; cited from earlier work.

Broadly, the Kd is a measure of binding affinity in units of concentration. High values mean weaker binding, low ones tighter binding. For `CC[C@H](C)[C@H](NC(=O)[C@H](C)NC(=O)[C@H](CCCNC(=N)N)NC(=O)[C@@H](NC(=O)[C@H](CCCCN)NC(=O)[C@H](CC(N)=O)NC(=O)[C@H](CCCNC(=N)N)NC(=O)[C@@H](NC(=O)[C@@H](NC(=O)[C@H](CCC(=O)O)NC(=O)[C@H](CCCCN)NC(=O)[C@H](CCCNC(=N)N)NC(=O)[C@H](C)N)[C@@H](C)CC)[C@@H](C)CC)[C@@H](C)CC)C(=O)NCC(=O)N[C@@H](CCCCN)C(=O)N[C@@H](CCSC)C(=O)N[C@@H](C)C(=O)N[C@@H](CCCNC(=N)N)C(=O)N[C@H](C(=O)N[C@@H](Cc1ccccc1)C(=O)N[C@@H](CO)C(=O)N[C@H](C(=O)N[C@@H](CC(C)C)C(=O)N[C@@H](CCCNC(=N)N)C(=O)O)C(C)C)C(C)C` [βCaNp], the dissociation constant Kd at CaM1-148 [1] is ≤ 1 nM. Also, on CaM1-148 [2] (CaM1-148, presence of βCaNp), the “cooperativity term kI–II” value amounted to 19.90 M⁻¹.
For the compound “CaM1-148: full-length Paramecium CaM, residues 1-148”, in the data set with CaM1-148 [2] (CaM1-148, absence of βCaNp), the “cooperativity term kIII–IV” value stood at 54.39 M⁻¹ and the “cooperativity term kI–II” value is 1.73 M⁻¹. The “calcium affinity of C-domain relative to N-domain” value in the data set on CaM C-domain vs N-domain was ~ 25 fold.
As to Calmodulin [CaM], in the data set with CaM1-148 [2] (CaM alone, simulation), the “Ca2+ concentration of maximal population of intermediate (0011)” value was 2 µM and the “maximal population of intermediate (0011)” value is on record as 70%. The “dissociation constant of (Ca2+)4-CaM from CaN (range in words)” value on CaN [3] (ref [35]) is recorded as “low nM range”. The “Kd of full-length CaM from CaN (range in words)” value at CaN [3] (ref [36]) is “pM range”. Moreover, the “increase of phosphatase activity of CaN” value in the data set with CaN [4] is on record as 10 fold.
For the compound Mammalian CaM [mCaM], in the data set on CaM C-domain vs N-domain, the “calcium affinity of C-domain relative to N-domain” value was “about 10 fold”.
Regarding “Melittin: another peptide that forms a 1:1 complex with CaM (GIGAVLKVLTTGLPALISWIKRKRQQG)”, the “Average T2” value in the data set on 15N-(Ca^2+)4-CaM1-148 is 0.050 ± 0.006 s. In addition, the “Stokes Radius” value with (Ca^2+)4-CaM1-148 is listed as 22.94 ± 0.32 ^f Å.
